Sequences and labels used below:
B1: human Lamin C (control plasmid pLAM5') (other, UniProt P02545-2 66-230, looked up)
chain: SEEVVSREVSGIKAAYEAELGDARKTLDSVAKERARLQLELSKVREEFKELKARNTKKEGDLIAAQARLKDLEALLNSKEAALSTALSEKRTLEGELHDLRGQVAKLEAALGEAKKQLQDEMLRRVDAENRLQTMKEELDFQKNIYSEELRETKRRHETRLVEID
notes: Two-hybrid control protein; Lamin C is an isoform of the LMNA entry
B2: Gal4-AD-CTMP fusion protein encoded by pGADGH.CTMP (CTMPL fused to the GAL4 transcriptional activation domain) (other, not shown: small tags and cut ends)
chain: NSARARASAAPRPGAMLRSCAARLRTLGALCRPPVGRRLPGSEPRPELRSFSSEEVILKDCSVPNPSWNKDLRLLFDQFMKKCEDGSWKRLPSYKRTPTEWIQDFKTHFLDPKLMKEEQMSQAQLFTRSFDDGLGFEYVMFYNDIEKRMVCLFQGGPYLEGPPGFIHGGAIATMIDATVGMCAMMAGGIVMTANLNINYKRPIPLCSVVMINSQLDKVEGRKFFVSCNVQSVDEKTLYSEATSLFIKLNPAKSLT
notes: Yeast two-hybrid prey recovered from a HeLa cDNA library; also called this clone
B3: GAL4 DNA binding domain fusion of human PKB alpha amino acids 411-480 (pGBT-CT) (other, yeast;human, UniProt P04386 1-147, looked up)
chain: MKLLSSIEQACDICRLKKLKCSKEKPKCAKCLKNNWECRYSPKTKRSPLTRAHLTEVESRLERLEQLFLLIFPREDLDMILKMDSLQDIKALLTGLFVQDNVNKDAVTDRLASVETDMPLTLRQHRISATSSSEESSNKGQRQLTVSIVWQHVYEKKLSPPFKPQVTSETDTRYFDEEFTAQMITITPPDQDDSMECVDSERRPHFPQFSYSASGTA
notes: range 1-147;range 411-480

Test [1] addresses T1, GAL4 DNA binding domain fusion of human PKB alpha amino acids 1-480 (pGBT-PH-KIN-CT, full-length PKB) (yeast; human, UniProt P04386 1-147; P31749 1-480).
T1 construct: range 1-147;range 1-480
Kind of test: yeast two-hybrid.

Test [2] deals with T2, GAL4 DNA binding domain fusion of human PKB alpha amino acids 147-480 (pGBT-KIN-CT) (yeast; human, UniProt P04386 1-147; P31749 147-480).
T2 construct: range 1-147;range 147-480; Bait of the library screen; also called deltaPH
The test is described as follows: yeast two-hybrid.

Test [3] concerns the target B3. The test is described as follows: yeast two-hybrid.
Test [4] addresses T1, GAL4 DNA binding domain fusion of human …. Kind of test: yeast two-hybrid, His auxotrophy and lacZ reporters.
Test [5] deals with T2, GAL4 DNA binding domain fusion of human …. Described as above.
Test [6] has as its target B2. Described as above.

As for B1, the binding result in test [1], in test [2] and in test [3] was “no binding” throughout.
For the molecule B2, the binding result in test [4] and in test [5] was “binds” in each case.
In the case of B3, in test [6], the binding result is on record as “binds”.

The values are drawn from US20030124602A1 (Novartis, published 2003).
